Reference: patent US6358728B1, “Mutations in nucleic acid molecules encoding 11-CIS retinol dehydrogenase, the mutated proteins, and uses thereof” (The President & Fellows of Havard College, priority 1999, dated 2002)

T1: wild type 11-cis retinol dehydrogenase (Homo sapiens, UniProt Q92781)
T1 construct: expressed in transfected cells; host or cells: COS-1 cells (microsomes), vector pSG5
T1 sequence (Q92781 1-318): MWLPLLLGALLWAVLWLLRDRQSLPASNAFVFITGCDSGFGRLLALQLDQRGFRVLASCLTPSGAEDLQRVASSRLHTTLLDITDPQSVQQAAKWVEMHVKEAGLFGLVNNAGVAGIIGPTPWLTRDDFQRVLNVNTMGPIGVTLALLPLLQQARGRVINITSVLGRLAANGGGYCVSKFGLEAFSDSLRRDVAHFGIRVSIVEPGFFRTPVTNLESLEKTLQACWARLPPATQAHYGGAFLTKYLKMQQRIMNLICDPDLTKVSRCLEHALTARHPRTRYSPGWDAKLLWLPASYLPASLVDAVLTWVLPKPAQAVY

T2: 11-cis retinol dehydrogenase (RDH5) (Homo sapiens, UniProt Q92781)
T2 construct: expressed in transfected cells; host or cells: COS-1 cells (microsomes), vector pSG5
T2 sequence (Q92781 1-318): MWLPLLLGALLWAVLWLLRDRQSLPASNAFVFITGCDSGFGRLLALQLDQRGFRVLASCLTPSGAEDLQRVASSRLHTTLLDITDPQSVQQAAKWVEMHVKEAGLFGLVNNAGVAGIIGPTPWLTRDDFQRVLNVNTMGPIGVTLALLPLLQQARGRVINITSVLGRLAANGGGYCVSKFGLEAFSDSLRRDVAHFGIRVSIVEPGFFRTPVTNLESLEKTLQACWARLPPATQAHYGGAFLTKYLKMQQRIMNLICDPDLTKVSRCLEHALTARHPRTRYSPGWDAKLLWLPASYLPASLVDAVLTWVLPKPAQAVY


Legend:
[1] = target: T1, wild type 11-cis retinol dehydrogenase; assay: Km and Vmax of wild type enzyme, oxidation of 11-cis retinol to 11-cis retinal by microsomes, HPLC; format: biochemical; settings: 2 μg microsomal protein, 8-minute incubations, 5 mM NAD, 37° C., Lineweaver-Burk, average of duplicates 7.1 and 9.6
Experimental: To monitor the ability of the wild-type and mutant enzymes to catalyze the oxidation of 11-cis retinol to 11-cis retinal, 11-cis retinol, which had been synthesized by reduction of 11-cis retinal with NaBH4 and stored under argon at −80° C., was added to reaction mixtures containing microsomes from the transfected cells.
The enzyme reactions, in a total volume of 100 μp were carried out in 50 mM Tris-HCl buffer pH7.5 containing 5 mM NAD or NADH, […] 11-cis retinol, or 11-cis retinal, and microsomes at 37° C. All manipulations of retinoids were performed in dim light. The reactions were stopped by putting the tubes on ice, and the retinoids were immediately extracted with 200 μl n-hexane. Subsequently, 75 μl aliquots were analyzed by reverse-phase HPLC using a C18 column. The mobile phase was acetonitrile/water (85/15, v/v), and the column was eluted under isocratic conditions at a flow rate of 1 ml/min. 11-cis retinol and 11-cis retinal eluted at 12.0-12.2 and 14.0-14.3 minutes, respectively. Retinoids were quantified at 320 and 370 nm. […] Formed 11-cis retinal was quantified in the HPLC analyses, and the Km and Vmax values were calculated from Lineweaver-Burk plots. The values were compensated for the extraction efficiency (60-70%, as determined experimentally).

[2] = test system: 11-cis retinol dehydrogenase (RDH5); assay: Relative activities of wild type and mutant enzymes, oxidation of 11-cis retinol (forward reaction), microsomes, HPLC; format: biochemical, human; settings: for ability to catalyze oxidation of 11-cis-retinol to 11-cis-retinal: 10 minutes at 37° C., 5 mM NAD, 50 μM 11-cis-retinol, mutant 20 μg, wild type 2 μg microsomes; for fold activity above background activity (mock transformants) / fold less activity than wild type enzyme: after 40 minutes incubation
Experimental: (§1) The relative activities of the wild type and mutant enzymes were then determined. To do this, microsomes containing a mutant enzyme (20 μg), or wild type enzyme(2 μg) together with 18 μg of microsomal protein from mock-transfected cells, to standardize the experimental conditions, or no enzyme were combined with 50 mM Tris-HCl buffer (pH 7.5), containing 5 mM of NAD, and 50 μM 11-cis-retinol (forward, oxidation reaction) or 5 mM NADH and 50 μM 11-cis-retinal (reverse, reduction reaction) in a total volume of 100 μl. 50 μM 11-cis retinol is approximately a seven-fold higher substrate concentration than the estimated Km value for the wild-type enzyme. The mixtures were incubated for 10 minutes at 37° C., after which the reactions were stopped by putting the mixtures on ice. Retinoids were extracted immediately with 200 μl of n-hexane. Subsequently, 75 μl aliquots were analyzed via reversed phase HPLC using a C18 column. The mobile phase was acetonitrile/water (85:15 v/v), and the column was eluted under isocratic conditions at a flow rate of 1 ml/min. The 11-cis-retinol eluted at 12.0-12.2 minutes, and 11-cis-retinal at 14.0-14.3 minutes. Retinoids were quantified at 320 (retinol) and 370 (retinal) nm. Relative activities of wild-type and mutant enzymes were calculated as the ratio of formed 11-cis retinal by transfected versus mock-transfected microsomes. The results were normalized for the total extracted retinoid content from each reaction.
The Gly238Trp mutant was tested further, to determine if it had any activity, by incubating for 20 and 40 minute periods before extracting retinoids. Wild type and Ser73Phe mutant were used as controls.

[3] = target: T2, 11-cis retinol dehydrogenase (RDH5); assay: Relative activities of wild type and mutant enzymes, reduction of 11-cis retinal (reverse reaction), microsomes, HPLC; format: biochemical; settings: 10 minutes at 37° C., 5 mM NADH, 50 μM 11-cis-retinal
Experimental: as §1, with “The results were normalized for the total extracted retinoid content from each reaction.” left out

Row | Vmax [1] [nmol/mg protein/minute] | ability to catalyze oxidation of 11-cis-retinol to 11-cis-retinal [2] | fold activity above background activity (mock transformants) [2] [fold] | ability to catalyze reduction of 11-cis-retinal to 11-cis-retinol (reverse reaction) [3] | fold less activity than wild type enzyme [2] | Molecule
1 | 8.4 | – | – | – | – | CC1=C(/C=C/C(C)=C/C=C\C(C)=C\CO)C(C)(C)CCC1 [11-cis retinol]
2 | – | residual activity | 9.1±1 | – | approximately 5 fold | Ser73Phe mutant: mutant human 11-cis retinol dehydrogenase (RDH5), Ser to Phe at amino acid 73 (protein, UniProt Q92781 1-318, looked up, variant S73F) Retinol dehydrogenase 5: MWLPLLLGALLWAVLWLLRDRQSLPASNAFVFITGCDSGFGRLLALQLDQRGFRVLASCLTPSGAEDLQRVAFSRLHTTLLDITDPQSVQQAAKWVEMHVKEAGLFGLVNNAGVAGIIGPTPWLTRDDFQRVLNVNTMGPIGVTLALLPLLQQARGRVINITSVLGRLAANGGGYCVSKFGLEAFSDSLRRDVAHFGIRVSIVEPGFFRTPVTNLESLEKTLQACWARLPPATQAHYGGAFLTKYLKMQQRIMNLICDPDLTKVSRCLEHALTARHPRTRYSPGWDAKLLWLPASYLPASLVDAVLTWVLPKPAQAVY
3 | – | no activity above background level | 2.2±0.14 | – | approximately 19 fold | Gly238Trp mutant: mutant human 11-cis retinol dehydrogenase (RDH5), Gly to Trp at amino acid 238 (protein, UniProt Q92781 1-318, looked up, variant G238W) Retinol dehydrogenase 5: MWLPLLLGALLWAVLWLLRDRQSLPASNAFVFITGCDSGFGRLLALQLDQRGFRVLASCLTPSGAEDLQRVASSRLHTTLLDITDPQSVQQAAKWVEMHVKEAGLFGLVNNAGVAGIIGPTPWLTRDDFQRVLNVNTMGPIGVTLALLPLLQQARGRVINITSVLGRLAANGGGYCVSKFGLEAFSDSLRRDVAHFGIRVSIVEPGFFRTPVTNLESLEKTLQACWARLPPATQAHYWGAFLTKYLKMQQRIMNLICDPDLTKVSRCLEHALTARHPRTRYSPGWDAKLLWLPASYLPASLVDAVLTWVLPKPAQAVY

Row | Molecule | Vmax [1] [nmol/mg protein/minute] | ability to catalyze oxidation of 11-cis-retinol to 11-cis-retinal [2] | fold activity above background activity (mock transformants) [2] [fold] | ability to catalyze reduction of 11-cis-retinal to 11-cis-retinol (reverse reaction) [3] | fold less activity than wild type enzyme [2]
4 | wild type enzyme: wild type human 11-cis retinol dehydrogenase (RDH5) expressed in COS-1 cells (protein, UniProt Q92781 1-318, looked up) Retinol dehydrogenase 5: MWLPLLLGALLWAVLWLLRDRQSLPASNAFVFITGCDSGFGRLLALQLDQRGFRVLASCLTPSGAEDLQRVASSRLHTTLLDITDPQSVQQAAKWVEMHVKEAGLFGLVNNAGVAGIIGPTPWLTRDDFQRVLNVNTMGPIGVTLALLPLLQQARGRVINITSVLGRLAANGGGYCVSKFGLEAFSDSLRRDVAHFGIRVSIVEPGFFRTPVTNLESLEKTLQACWARLPPATQAHYGGAFLTKYLKMQQRIMNLICDPDLTKVSRCLEHALTARHPRTRYSPGWDAKLLWLPASYLPASLVDAVLTWVLPKPAQAVY | – | exhibited the expected ability to catalyze the oxidation | 42.9 ± 4.5 | catalyzed the reverse reaction | –
